In the supplement of paper PMC10567573 one finds protein stability index data, which are given here for 53 sequences.

± gives the standard deviation.

This data set in a line: protein stability index of a GFP-peptide fusion (GPS, HEK-293T) (PSI 1-6); higher = more stable.
Setting [1] is: treatment: DMSO, c terminus: a fixed tail appended.
The mark [2] stands for this setting: treatment: MLN4924 1 uM, 8 h, c terminus: a fixed tail appended.
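Note: 24-mer peptide tiles fused after GFP, lentivirally expressed, FACS-sorted into six equal bins by GFP/DsRed ratio, decoded by Illumina sequencing, PSI is the read-weighted mean bin number.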

Turning to NALTLTFQRAMHDYNQAEMKQRDN [STX11], the protein stability index by setting is: under setting [1], 3.54 ± 0.15; under setting [2], 3.68 ± 0.12.

Take NCEQLCVNVPGSFVCQCYSGYALA [MATN2]: the protein stability index is 2.16 ± 0.55 under setting [1] and 2.34 ± 0.53 under setting [2].

Take NESTVCLMSYERRQILHLITMMAL [TENT5D]: the protein stability index was found to be 2.3 ± 0.47 under setting [1] and 2.1 ± 0.2 under setting [2].

On to NFADEDEAQAFRALVQEKIQKRNQ [WAS], for which the protein stability index reads like this: under setting [1], 4.55 ± 0.29; under setting [2], 4.62 ± 0.3.

In turn, NFCEPQDYRPMNHEAFKDELKTFR [CDC25B] came in with a protein stability index under setting [1] of 4.04 ± 0.085 and a protein stability index under setting [2] of 4.15 ± 0.25.

On to NFIREQDLYALKSVKIPVRNHGIL [LYSMD4], for which the protein stability index turned out to be 2.27 ± 0.076 under setting [1] and 2.35 ± 0.37 under setting [2].

For NFYYFSLIPKTWYSAEQFCVSRNS [CD207], the protein stability index under setting [1] was 2.6 ± 0.53 and the protein stability index under setting [2] was found to be 2.3 ± 0.45.

Take NGLNARMMHGGSYSLTTSSTHKRS [RAB40B]: the protein stability index is 4.28 ± 0.12 under setting [1] and 4.34 ± 0.19 under setting [2].

Take NGPDCGYGSFHQQYWLDGKIIAVG [ATE1]: the protein stability index by setting is: under setting [1], 2.35 ± 0.42; under setting [2], 2.26 ± 0.26.

For the sequence NGVLLCFYSQEWYARQHCPLKNPT [SOAT1], the protein stability index is, setting by setting: under setting [1], 2.81 ± 0.31; under setting [2], 2.6 ± 0.57.

For NHLLHHFVIGHLKGAPASWWNHMH [FADS1], the protein stability index was determined as 2.36 ± 0.56 under setting [1] and 2.31 ± 0.34 under setting [2].

NIGDSSSGLIQTVFISSYMVLAPV [SPNS1]: the protein stability index runs as follows: under setting [1], 3.12 ± 0.32; under setting [2], 2.67 ± 0.38.

Consider NKQGHGCESDIWALGCVMYTMLLG [PLK2], for which the protein stability index under setting [1] is 2.87 ± 0.58 and the protein stability index under setting [2] amounted to 2.54 ± 0.064.

Take NLDEEMKKIRQVIRKYNYVAMDTE [CNOT7]: the protein stability index came out at 3.47 ± 0.14 under setting [1] and 3.38 ± 0.22 under setting [2].

In the case of NLFFAWIKIFKYISFNKTMTQLSS [PKD2L1], the protein stability index under setting [1] amounted to 3.05 ± 0.49 and the protein stability index under setting [2] was determined as 2.99 ± 0.44.

For the sequence NPEEIRGGGLLKYSNLLVRDFRPT [TENT5C], the protein stability index under setting [1] came to 3.04 ± 0.3 and the protein stability index under setting [2] turned out to be 3.14 ± 0.31.

Turning to NPFAKGFRENGRNCKRERDARVKR [TBX6], the protein stability index stood at 4.1 ± 0.24 under setting [1] and 4.09 ± 0.36 under setting [2].

As to NPFYHCLVAEILPAPGKLLGPCVV [SAT2], the protein stability index is, setting by setting: under setting [1], 3.16 ± 0.97; under setting [2], 3.07 ± 1.2.

Take NPQENRWHTIAPMGTRRKHLGCAV [KLHL20]: the protein stability index by setting is: under setting [1], 3.1 ± 0.13; under setting [2], 3.11 ± 0.095.

NQKLFDLRGKFKRPPLRRVRMSAD [TNNI2]: the protein stability index runs as follows: under setting [1], 3.17 ± 0.21; under setting [2], 3.51 ± 0.26.

For the sequence NQRAMDLYKALGAQDLTEAEGWHF [SAT2], the protein stability index stood at 3.28 ± 0.25 under setting [1] and 3.14 ± 0.28 under setting [2].

Sequence NSAAHLFGYRPYDKNISPRENILV [SCD] registered a protein stability index under setting [1] of 2.22 ± 0.38 and a protein stability index under setting [2] of 2.57 ± 0.26.

Regarding NSFRLLFDVVVILTCSLSFLLCAR [MCOLN1], the protein stability index reads like this: under setting [1], 3.21 ± 0.17; under setting [2], 3.24 ± 0.24.

As to NTGYRLQNNENNISCVERGWSTPP [CFHR2], the protein stability index under setting [1] was found to be 3.67 ± 0.19 and the protein stability index under setting [2] came to 3.66 ± 0.22.

As to NTLVCNGLQNCVYPWDENHCKEKR [NETO1], the protein stability index stood at 4.21 ± 0.25 under setting [1] and 4.26 ± 0.3 under setting [2].

Take NTNPKEVQEMRNKIREQNLQDIKT [ADD1]: the protein stability index was found to be 4.98 ± 0.18 under setting [1] and 5.11 ± 0.13 under setting [2].

Take NVGGALYYTTMQTLTKQDTMLKAM [KCTD10]: the protein stability index runs as follows: under setting [1], 2.6 ± 0.35; under setting [2], 2.38 ± 0.54.

As for NVKTLKDGKPFPELVLEQQLDREA [PCDHGC5], the protein stability index by setting is: under setting [1], 5.07 ± 0.33; under setting [2], 5.02 ± 0.13.

Consider NVNSNLITWNRVVLLHGPPGTGKT [TRIP13], for which the protein stability index reads like this: under setting [1], 2.45 ± 0.21; under setting [2], 2.53 ± 0.14.

Take NWKETLVFPPEVPISEKAKDLILR [STK38L]: the protein stability index runs as follows: under setting [1], 2.81 ± 0.43; under setting [2], 3.28 ± 0.29.

Regarding NWWIRGILTLTMISLFFLIIYMGS [CDS1], the protein stability index stood at 2.54 ± 0.16 under setting [1] and 2.55 ± 0.35 under setting [2].

With NYIGTKNVIETCKEAGVQKLILTS [NSDHL], the protein stability index was determined as 2.5 ± 0.23 under setting [1] and 2.84 ± 0.44 under setting [2].

NYLVRLSFHNLKFDCSTANKIFLR [ZNF277]: the protein stability index reads like this: under setting [1], 2.46 ± 0.4; under setting [2], 2.55 ± 0.25.

NYMNAAMVHINRALKLIIRLFLVE [RTN3] gave a protein stability index under setting [1] of 2.24 ± 0.21 and a protein stability index under setting [2] of 2.27 ± 0.26.

Regarding NYSYRGYGALSSNLQPPASLQTGN [NOL4L], the protein stability index by setting is: under setting [1], 3.64 ± 0.2; under setting [2], 3.8 ± 0.25.

Regarding PACHSFNRAIHKKAKGTEAEEEY [FBXO34], the protein stability index came to 5.25 ± 0.49 (treatment: DMSO, c terminus: native) and 5.41 ± 0.34 (treatment: MLN4924 1 uM, 8 h, c terminus: native).

Take PAVTPDPWGVQGGQESEVPYKREE [PKD2L1]: the protein stability index under setting [1] was found to be 5.24 ± 0.33 and the protein stability index under setting [2] amounted to 5.49 ± 0.16.

Regarding PCPLGEPKTQACSGSESPSDSGKD [MYCL], the protein stability index was 5.41 ± 0.24 under setting [1] and 5.41 ± 0.17 under setting [2].

With PDDRLTCSQLLESSYFDSFQEAQI [CDKL4], the protein stability index is 3.91 ± 0.43 under setting [1] and 4.08 ± 0.12 under setting [2].

In the case of PDLRSLFSRAGISEAQLTDAETSK [WAS], the protein stability index runs as follows: under setting [1], 5.03 ± 0.28; under setting [2], 5 ± 0.27.

For PDVENEVKRLLRSDAEAVSTRWEV [TAF7L], the protein stability index by setting is: under setting [1], 3.24 ± 0.63; under setting [2], 3.76 ± 0.65.

As for PELPEGHLEDWLEKRAKRLSSAPS [ZMAT5], the protein stability index by setting is: under setting [1], 4.32 ± 0.12; under setting [2], 5.14 ± 0.14.

For PENILLDRDGHIKLTDFGFAKKLV [PRKX], the protein stability index reads like this: under setting [1], 2.9 ± 0.17; under setting [2], 3.08 ± 0.072.

For the sequence PEPVYFHCAAVTPAGCMYIHGGVV [KLHDC10], the protein stability index runs as follows: under setting [1], 2.53 ± 0.56; under setting [2], 2.85 ± 0.71.

For the sequence PEQVQNEIKSMKKRMSELCIDFNK [NLN], the protein stability index was 4.11 ± 0.44 under setting [1] and 4.23 ± 0.52 under setting [2].

As to PERSDLTLYLIVALATVSLLSLVT [PCDHGC5], the protein stability index reads like this: under setting [1], 2.02 ± 0.44; under setting [2], 2.27 ± 0.56.

For the sequence PFFVLNSDVICDFPFQAMVQFHRH [GMPPB], the protein stability index runs as follows: under setting [1], 2.4 ± 0.67; under setting [2], 2.34 ± 0.29.

In the case of PGAPGMPPGIPPLMPGVPPLMPGM [ZNF207], the protein stability index came to 3.71 ± 0.13 under setting [1] and 3.62 ± 0.24 under setting [2].

For the sequence PGYLVGRNNANGVDLNRNFPDLNT [CPN1], the protein stability index is, setting by setting: under setting [1], 3.73 ± 0.36; under setting [2], 3.67 ± 0.48.

With PHKTFRKLRLFDTPHTPKSLLSKA [WEE1], the protein stability index by setting is: under setting [1], 2.82 ± 0.35; under setting [2], 2.98 ± 0.41.

Regarding PHSDQRLRPQRTKQYVLLSILLCL [TMEM106C], the protein stability index under setting [1] is 2.34 ± 0.48 and the protein stability index under setting [2] was found to be 2.11 ± 0.17.

With PKGGQVQIVTKKIDLSHVTSKCGS [MAP2], the protein stability index is 3.92 ± 0.18 under setting [1] and 3.91 ± 0.37 under setting [2].

Take PKKISDLDHCANRVLMYGSELDAD [TPH1]: the protein stability index is, setting by setting: under setting [1], 4.58 ± 0.083; under setting [2], 4.47 ± 0.088.
